The record followed here is paper doi:10.1101/2020.04.07.029496 (bioRxiv, 2020).

Experiment [1] deals with E. gossypii Tip20 (residues 1-672) (E. gossypii). Nature of the experiment: ITC.
Experiment [2] addresses T1, S. cerevisiae Tip20_(I481D,L585D) (S. cerevisiae, UniProt P33891 1-701, I481D | L585D).
T1 sequence: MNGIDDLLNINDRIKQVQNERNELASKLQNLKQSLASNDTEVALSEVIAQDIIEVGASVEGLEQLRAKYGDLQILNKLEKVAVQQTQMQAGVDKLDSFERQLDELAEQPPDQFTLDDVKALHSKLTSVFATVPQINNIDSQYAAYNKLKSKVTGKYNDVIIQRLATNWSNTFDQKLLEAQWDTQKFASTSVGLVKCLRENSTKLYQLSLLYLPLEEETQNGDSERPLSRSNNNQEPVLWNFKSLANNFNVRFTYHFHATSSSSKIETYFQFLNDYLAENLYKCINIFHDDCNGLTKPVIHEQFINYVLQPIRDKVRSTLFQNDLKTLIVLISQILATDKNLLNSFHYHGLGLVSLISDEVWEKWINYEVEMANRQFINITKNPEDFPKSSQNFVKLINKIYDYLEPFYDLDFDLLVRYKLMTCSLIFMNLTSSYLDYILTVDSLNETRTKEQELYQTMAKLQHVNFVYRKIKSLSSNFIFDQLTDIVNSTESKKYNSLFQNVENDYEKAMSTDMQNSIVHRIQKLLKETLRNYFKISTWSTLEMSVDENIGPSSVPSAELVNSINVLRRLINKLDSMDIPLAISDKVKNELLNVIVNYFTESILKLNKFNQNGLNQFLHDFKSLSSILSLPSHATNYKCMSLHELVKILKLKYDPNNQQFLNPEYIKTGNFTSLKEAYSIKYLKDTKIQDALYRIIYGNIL
Nature of the experiment: ITC.

With “E. gossypii MBP-Sec20NTD (domain or fragment)”, the Kd in experiment [1] is 100 nM.

B1: S. cerevisiae Sec20_(1-174) (domain or fragment, UniProt P28791 1-174, looked up)
chain: MVVTFLQDLEVLQDALLNNLQKLSAISRRKESGESKHDNKDSFAAIANEHNDEEEEIEFEDLVNIIESKVSDFESVLKCSIVEMTYKYPELKLQWEKSPRYDQCDKLHIVKLDKQMNEDIYAQLVEELDFVLQFVDWFYCYRLKVKEILRQHHKRDLAWNDEKRDRAIKFHAVD
On to B1, for which the “fold increase in KD against wild-type Tip20” value in experiment [2] came to 15 fold.
